Where a chain is given by its changes, count along the chain named.
B1: MON-HT1: engineered oxygenase protein, amino acid sequence SEQ ID NO:14 (protein)
chain: MHAALTPLTNKYRFIDVQPLTGVLGAEITGVDLREPLDDSTWNEILDAFHTYQVIYFPGQAITNEQHIAFSRRFGPVDPVPILKSIEGYPEVQMIRREANESSRFIGDDWHTDSTFLDAPPAAVVMRAIEVPEYGGDTGFLSMYSAWETLSPTMQATIEGLNVVHSATKVFGSLYQATNWRFSNTSVKVMDVDAGDRETVHPLVVTHPVTGRRALYCNQVYCQKIQGMTDAESKSLLQFLYEHATKFDFTCRVRWKKDQVLVWDNLCTMHRAVPDYAGKFRYLTRTTVAGDKPSR
B2: MON-HT2: engineered oxygenase protein, amino acid sequence SEQ ID NO:18 (protein)
chain: B1 chain with I82L, F105V, T112S, V273A
B3: MON-HT3: engineered oxygenase protein, amino acid sequence SEQ ID NO:22 (protein)
chain: MHAALSPLSQRFERIAVQPLTGVLGAEITGVDLREPLDDSTWNEILDAFHTYQVIYFPGQAITNEQHIAFSRRFGPVDPVPLLKSIEGYPEVQMIRREANESGRVIGDDWHTDSTFLDAPPAAVVMYAKEVPPYGGDTLFASMYTAWETLSPTMQATIEGLNVVHSATRVFGSLYQAQNRRFSNTSVKVMDVDAGDRETVHPLVVTHPETGRKGLYVNQVYCQRIEGMSEKESEPLLSFLFAHATKPEFTCRVRWQEGQVLVWDNLCTQHFAVPDYAGKFRYLTRTTVGGVRPAR

Key:
[1] = format: physicochemical; conditions: for T1/2, temperature where 50% of the protein was unfolded, Buffer: pH 7.5
In short: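 Thermal shift assay: purified enzyme in 30 mM Tris pH7.5, 150 mM NaCl, with or without 50 uM Fe2+ and 1.0 mM aKG. Unfolding followed by SYPRO orange fluorescence from 10° C. to 95° C. in 0.5° C. steps; melting temperature (T1/2) taken from the curve.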

[2] = tested on: F1 hybrid maize plants; assay: efficacy field trial for quizalofop-P tolerance and clethodim sensitivity; format: in vivo; conditions: for average injury rating, V4 Growth Stage, 4x Quizalofop / average injury rating, V8 Growth Stage, 4x Quizalofop / average injury rating, V4 Growth Stage, 8x Quizalofop / average injury rating, V8 Growth Stage, 8x Quizalofop / average injury rating, V4 Growth Stage, 16x Quizalofop / average injury rating, V8 Growth Stage, 16x Quizalofop / average injury rating, V8 Growth Stage, 1x Clethodim: scale 0 to 100; for average injury rating, V4 Growth Stage, 4x Quizalofop / average injury rating, V8 Growth Stage, 4x Quizalofop: 0.32 lb ai/acre at VE-V2, V4, V8; for average injury rating, V4 Growth Stage, 4x Quizalofop / average injury rating, V8 Growth Stage, 4x Quizalofop / average injury rating, V4 Growth Stage, 8x Quizalofop / average injury rating, V8 Growth Stage, 8x Quizalofop / average injury rating, V4 Growth Stage, 16x Quizalofop / average injury rating, V8 Growth Stage, 16x Quizalofop: with CTP unless label says no CTP; for average injury rating, V4 Growth Stage, 8x Quizalofop / average injury rating, V8 Growth Stage, 8x Quizalofop: 0.64 lb ai/acre at VE-V2, V4, V8; for average injury rating, V4 Growth Stage, 16x Quizalofop / average injury rating, V8 Growth Stage, 16x Quizalofop: 1.28 lb ai/acre at VE-V2, V4, V8; for average injury rating, V8 Growth Stage, 1x Clethodim: clethodim 0.25 lb ai/acre at V8, volunteer control; for tolerance to the quizalofop-P application: 1.28 lb ai/acre (16×)
Experimental: Separate trait efficacy field trials for quizalofop-P and 2,4-D were conducted at two locations cach with F1 hybrid transgenic plants produced by crossing an inbred plant containing maize event MON89034 with an R1 plant containing MON-HT55 (with a CTP), MON-HTI (with or without a CTP), MON-HT2 (with or without a CTP), MON-HT3 (with a CTP), MON-HT4 (with a CTP), MON-HT5 (with a CTP), MON-HT6 (with a CTP), or MON-HT7 (with a CTP). Transgenic F1 hybrid plants containing maize events NK603×MON89034 were used for comparison as a control.
In the efficacy field trial for quizalofop-P tolerance and clethodim sensitivity, one of four herbicide treatments was used: (1) quizalofop-P (Assure II) at 0.32 lb ai/acre (4×) plus 0.25% v/v non-ionic surfactant (NIS) applied at VE-V2 growth stage followed by the same at V4 growth stage followed by the same at V8 growth stage; (2) quizalofop-P at 0.64 lb ai/acre (8×) plus 0.25% v/v NIS applied at VE to V2 growth stage followed by the same at V4 growth stage followed by the same at V8 growth stage; (3) quizalofop-P at 1.28 lb ai/acre (16×) plus 0.25% v/v NIS applied at VE to V2 growth stage followed by the same at V4 growth stage followed by the same at V8growth stage; or (4) clethodim at 0.25 lb ai/acre (1×) plus 0.25% v/v NIS applied at V8 growth stage. Plots were visually rated 10-14 days after application for crop injury on a scale of 0 to 100with “0” being none and “100” being complete crop destruction. Tables 14 and 15 show the average injury ratings after herbicide application at V4 or V8 growth stage, respectively.

[3] = tested on: F1 hybrid maize plants; assay: efficacy field trial with segregating F1 hybrid plants; format: in vivo; conditions: for % Injury from V4 2,4-D / % Injury from V8 2,4-D: 2,4-D amine 2× at VE-V2 (plus quizalofop-P 0.5×), V4, V8; for % Injury from V4 Quizalofop / % Injury from V8 Quizalofop: quizalofop-P 2× at VE-V2, V4, V8
Experimental: Ten unique engineered proteins optimized for activity at higher temperatures were selected for maize transformation and analysis in plants. DNA constructs were produced for expressing these engineered proteins with codon usage optimized for monocot expression using methods known to those skilled in the art. Enhancers, promoters, leaders, introns, CTPs, and 3′UTRs were tested in various combinations with the engineered proteins in these DNA constructs. The DNA constructs were used to transform immature maize (LH244) embryos with these vectors using Agrobacterium tumifaciens and standard methods known in the art. Regenerated R0 transgenic plantlets were grown in the green house.
Transgenic R0 maize plants were screened by the application of quizalofop-P (2×) plus 2,4-D (2×) at 7 to 10 days following transplant into plugs (generally corresponding to V3-V4 growth stage). All constructs tested produced plants containing unique events that passed the RO screen. The R0 plants were selfed to generate R1 homozygous seed and the R0 was also used as the male to cross with inbred plants containing maize event MON89034 to generate segregating F1 hybrid seed for efficacy field trials.
An efficacy field trial was conducted with segregating F1 hybrid plants, with 50% hemizygous and 50% null for the transgene. Tolerance to quizalofop-P (2×) plus 2,4-D (2×) was assessed using two herbicide application regimens: (1) quizalofop-P (Assure II) at 0.16 lb ai/acre (2×) plus 0.25% v/v non-ionic surfactant (NIS) applied at VE-V2 growth stage followed by the same at V4 growth stage followed by the same at V8 growth stage and (2) 2,4-D amine at 2 lb ae/acre (2×) plus quizalofop-P at 0.04 lb ai/acre (0.5×) plus 0.25% v/v NIS applied at VE-V2 growth stage followed by 2,4-D amine at 2 lb ae/acre (2×) plus 0.25% v/v NIS applied at V4 growth stage followed by the same at V8 growth stage. The 50% of the plants that were null for transgene were removed by the first quizalofop-P application at VE-V2 growth stage. Plots were visually rated 10-14 days after application for crop injury on a scale of 0 to 100 with “0” being none and “100” being complete crop destruction. […] The percentage injury rating with 2× application of 2,4-D at V8 growth stage ranged from a high of 40% to a low of 0. Similarly, the percentage injury rating with 2× application of quizalofop-P at V8 growth stage ranged from a high of 90% to a low of 0. Variation in injury rating between plants expressing the same protein is likely due to variations in construct design or transgene insertion location.

Molecule | T1/2, temperature where 50% of the protein was unfolded, Buffer plus Fe2+ and aKG [1] [°C] | T1/2, temperature where 50% of the protein was unfolded, Buffer [1] [°C] | average injury rating, V4 Growth Stage, 4x Quizalofop [2] | average injury rating, V8 Growth Stage, 4x Quizalofop [2] | average injury rating, V4 Growth Stage, 8x Quizalofop [2] | average injury rating, V8 Growth Stage, 8x Quizalofop [2] | average injury rating, V4 Growth Stage, 16x Quizalofop [2] | average injury rating, V8 Growth Stage, 16x Quizalofop [2] | average injury rating, V8 Growth Stage, 1x Clethodim [2] | % Injury from V4 2,4-D ([3]; CTP A) [%] | % Injury from V8 2,4-D ([3]; CTP A) [%] | % Injury from V4 Quizalofop ([3]; CTP A) [%] | % Injury from V8 Quizalofop ([3]; CTP A) [%] | % Injury from V4 2,4-D ([3]; CTP B) [%] | % Injury from V8 2,4-D ([3]; CTP B) [%] | % Injury from V4 Quizalofop ([3]; CTP B) [%] | % Injury from V8 Quizalofop ([3]; CTP B) [%] | % Injury from V4 2,4-D ([3]; CTP C) [%] | % Injury from V8 2,4-D ([3]; CTP C) [%] | % Injury from V4 Quizalofop ([3]; CTP C) [%] | other results
B1 | 59 | 56 | 0.0 | 2.0 | 0.8 | 2.0 | 4.5 | 5.5 | 93.3 | 7.5 | 5.83 | 8.33 | 8.33 | 10 | 10 | 7.5 | 8.75 | 14.09 | 11.36 | 0.45 | Melting temp, Buffer ([1]; Table 11 series): 58 °C; Melting temp, Buffer plus Fe2+ and aKG ([1]; Table 11 series): 62 °C; average injury rating, V4 Growth Stage, 4x Quizalofop ([2]; listed as MON-HT1 (no CTP)): 5.8; average injury rating, V8 Growth Stage, 4x Quizalofop ([2]; listed as MON-HT1 (no CTP)): 3.3; average injury rating, V4 Growth Stage, 8x Quizalofop ([2]; listed as MON-HT1 (no CTP)): 11.3; average injury rating, V8 Growth Stage, 8x Quizalofop ([2]; listed as MON-HT1 (no CTP)): 7.5; average injury rating, V4 Growth Stage, 16x Quizalofop ([2]; listed as MON-HT1 (no CTP)): 18.8; average injury rating, V8 Growth Stage, 16x Quizalofop ([2]; listed as MON-HT1 (no CTP)): 16.3; average injury rating, V8 Growth Stage, 1x Clethodim ([2]; listed as MON-HT1 (no CTP)): 94.5; % Injury from V8 Quizalofop ([3]; CTP C): 0.91%; % Injury from V4 2,4-D ([3]; CTP None): 12.86%; % Injury from V8 2,4-D ([3]; CTP None): 10.71%; % Injury from V4 Quizalofop ([3]; CTP None): 7.14%; % Injury from V8 Quizalofop ([3]; CTP None): 7.86%
B2 | 58 | 55 | 1.5 | 2.5 | 0.8 | 3.8 | 10.0 | 4.8 | 93.3 | 20 | 34.17 | 0 | 0 | 10.56 | 13.33 | 11.67 | 11.67 | 12 | 12 | 14.33 | tolerance to the quizalofop-P application ([2]; operably linked to a CTP, FIG. 5A): robust tolerance; average injury rating, V4 Growth Stage, 4x Quizalofop ([2]; listed as MON-HT2 (no CTP)): 42.5; average injury rating, V8 Growth Stage, 4x Quizalofop ([2]; listed as MON-HT2 (no CTP)): 16.3; average injury rating, V4 Growth Stage, 8x Quizalofop ([2]; listed as MON-HT2 (no CTP)): 76.3; average injury rating, V8 Growth Stage, 8x Quizalofop ([2]; listed as MON-HT2 (no CTP)): 52.5; average injury rating, V4 Growth Stage, 16x Quizalofop ([2]; listed as MON-HT2 (no CTP)): 82.5; average injury rating, V8 Growth Stage, 16x Quizalofop ([2]; listed as MON-HT2 (no CTP)): 77.5; average injury rating, V8 Growth Stage, 1x Clethodim ([2]; listed as MON-HT2 (no CTP)): 92.0; tolerance to the quizalofop-P application ([2]; without a CTP, FIG. 5B): moderate to poor tolerance; % Injury from V8 Quizalofop ([3]; CTP C): 14.33%; % Injury from V4 2,4-D ([3]; CTP None): 20%; % Injury from V8 2,4-D ([3]; CTP None): 33.75%; % Injury from V4 Quizalofop ([3]; CTP None): 0%; % Injury from V8 Quizalofop ([3]; CTP None): 0%
B3 | 48 | 46 | 0.8 | 2.5 | 0.0 | 2.0 | 4.3 | 6.0 | 94.5 | 21.7 | 9.2 | 1.6 | 0.5 |  |  |  |  |  |  |  | 
